Conditions in all cases: both partners purified
Assay [1] deals with T1, biotinylated HA antigen of B/Florida/04/2006 (Influenza B virus B/Florida/4/2006, UniProt E1TVD5, strain).
T1 construct: also called HA of B/Florida/04/2006
Put plainly: BLI.

The target of assay [2] is T2, hemagglutinin (HA) of influenza A virus A/California/07/2009 (H1N1, group 1) (Influenza A virus A/California/07/2009 …, UniProt C3W5X2, strain).
T2 construct: also called A/California/07/2009 HA
Put plainly: ELISA.

In assay [3] the target is T3, hemagglutinin (HA) of influenza A virus A/Sydney/05/1997 (H3N2, group 2) (Influenza A virus A/Sydney/5/1997 (H3N2), UniProt C3PR59, strain).
T3 construct: also called A/Sydney/05/1997 HA
Briefly: ELISA.

Results on five molecules are retold here after PMC5923107 (Antimicrobial Agents and Chemotherapy, 2018).

B1: TRL845 (antibody, V domains shown)
VH: QVQLVQSGGDLVQPGGSLRLSCAASGFTFSRYSMNWVRQAPGMGLEWVAYISDTSRTIYYADSVKGRFTISRDNAKNSLYLQMKSLRDEDTAVYYCARDPDTPFVRAFDSWGQGTLVTVSS
VL: DIVLTQSPSFLSASVGDRVTITCRASQLISSYFAWYQQKPGKPPKLLIYAASTLQSGVPSRFSGSGSGTQFSLTISSLQPEDFATYYCQQLNSYPPITFGQGTRLEIK
notes: also called MAb TRL845
B1 yielded a Kd in assay [1] of at most 0.2 nM. For the same molecule, the binding result in assay [2] and in assay [3] was “no binding (tested: 5 μg/ml (30 nM))” in each case.

B2: TRL847 (antibody, V domains shown)
VH: QVQLVESGGGLVQPGGSLRLSCVASGFTFSRFSMNWVRQAPGMGLEWVSYISDTGRTIYYADSVKGRFTISRDNDKNTLYLQMKSLRDEDSAFYYCARDPDTPFVRAFDSWGQGVLVTVSS
VL: DIVMTQSPSFLSASVGDRVTITCRTSQVISSYLAWYQQRPGKAPKLLIYAASTLQSGVPSRFSGSGSGTRFSLTISNLQPEDFATYFCQQLTTYPPITFGQGTRLEIK
notes: also called MAb TRL847
B2: the binding result in assay [1] was “binds”; in assay [2] it was “no binding (tested: 5 μg/ml (30 nM))”; in assay [3], “no binding (tested: 5 μg/ml (30 nM))”.

B3: TRL849 (antibody, V domains shown)
VH: QVQLVESGPGLVKPSQTLSLTCTVSGGSISNGGYHWSWIRQHPGKGLEWIGNIYYRGSTFYDPSLKSRVTISVDTSKSQFSLKLTSVTAADTAVYYCARMPLANYDLLTGLYIGAFDLWGQGTMVTVSS
VL: DIVLTQSPATLSVSPGERATLSCRASQSVNRNLAWFQQIPGQAPRLLIFDASTRAADIPARFSGGGSGAEFTLTVSSLQPEDFAVYYCQQYDKWPPGFGQGTKVEIK
notes: also called MAb TRL849
Consider B3, for which, in assay [1], the Kd was at most 0.2 nM. Besides, the binding result in assay [2] and in assay [3] was “no binding (tested: 5 μg/ml (30 nM))” each time.

B4: TRL854 (antibody, V domains shown)
VH: QVQLVESGAEVKKPGASVRVSCKGSGYTFTAYHMHWVRQAPGQGFEWVGWINPNSGATYYTSTFEGRVTMTRDTSITTAYMELSSLRSDDTAVYYCATDIVVERDASLGGFNSYGMDVWGQGTTVTVSS
VL: DIEMTQSPLSLPVTPGEPASISCRSSQSLLHSNGYNHLAWYLQKPGRSPHLLIYLASTRASGVPDRFSGSGSGTDFTLKISRVEAEDVGIYYCMQSLQTSITFGQGTRLEIK
notes: also called MAb TRL854
Turning to B4, the binding result is on record as “binds” in assay [1], “no binding (tested: 5 μg/ml (30 nM))” in assay [2] and “no binding (tested: 5 μg/ml (30 nM))” in assay [3].

B5: TRL848 (antibody, V domains shown)
VH: QVQLLESGGDVVQPGTSLRLSCAASGFSLWTSGMHWVRQAPGKGLEWVAVMSYDETKKYYADSVRGRFSISRDNSRNTLYLQMNSLRVEDTAVYFCAKPRLDYLDYFHAADSWGQGTLVSVSS
VL: DIVLTQPPSVSVAPGQTATITCGGNYIGSKSVNWYQQRPGHAPVLVVYDDSDRPSGIPDRFSGSNSRSTATTATLTISRVEAGDEADYYCQVWETSEDLWVFGGGTKLTVL
notes: also called MAb TRL848
With B5, the figures for the binding result in assay [1], in assay [2] and in assay [3] were “binds”, “no binding (tested: 5 μg/ml (30 nM))” and “no binding (tested: 5 μg/ml (30 nM))”, respectively.
